We go through six variants from paper PMC4521584.

Sequences and labels used below:
B1: WT His6-MutL, full length [E. coli] / WT MutS, full length [E. coli] (parent)
chain 1: MPIQVLPPQLANQIAAGEVVERPASVVKELVENSLDAGATRIDIDIERGGAKLIRIRDNGCGIKKDELALALARHATSKIASLDDLEAIISLGFRGEALASISSVSRLTLTSRTAEQQEAWQAYAEGRDMNVTVKPAAHPVGTTLEVLDLFYNTPARRKFLRTEKTEFNHIDEIIRRIALARFDVTINLSHNGKIVRQYRAVPEGGQKERRLGAICGTAFLEQALAIEWQHGDLTLRGWVADPNHTTPALAEIQYCYVNGRMMRDRLINHAIRQACEDKLGADQQPAFVLYLEIDPHQVDVNVHPAKHEVRFHQSRLVHDFIYQGVLSVLQQQLETPLPLDDEPQPAPRSIPENRVAAGRNHFAEPAAREPVAPRYTPAPASGSRPAAPWPNAQPGYQKQQGEVYRQLLQTPAPMQKLKAPEPQEPALAANSQSFGRVLTIVHSDCALLERDGNISLLSLPVAERWLRQAQLTPGEAPVCAQPLLIPLRLKVSAEEKSALEKAQSALAELGIDFQSDAQHVTIRAVPLPLRQQNLQILIPELIGYLAKQSVFEPGNIAQWIARNLMSEHAQWSMAQAITLLADVERLCPQLVKTPPGGLLQSVDLHPAIKALKDE
chain 2: MSAIENFDAHTPMMQQYLRLKAQHPEILLFYRMGDFYELFYDDAKRASQLLDISLTKRGASAGEPIPMAGIPYHAVENYLAKLVNQGESVAICEQIGDPATSKGPVERKVVRIVTPGTISDEALLQERQDNLLAAIWQDSKGFGYATLDISSGRFRLSEPADRETMAAELQRTNPAELLYAEDFAEMSLIEGRRGLRRRPLWEFEIDTARQQLNLQFGTRDLVGFGVENAPRGLCAAGCLLQYAKDTQRTTLPHIRSITMEREQDSIIMDAATRRNLEITQNLAGGAENTLASVLDCTVTPMGSRMLKRWLHMPVRDTRVLLERQQTIGALQDFTAGLQPVLRQVGDLERILARLALRTARPRDLARMRHAFQQLPELRAQLETVDSAPVQALREKMGEFAELRDLLERAIIDTPPVLVRDGGVIASGYNEELDEWRALADGATDYLERLEVRERERTGLDTLKVGFNAVHGYYIQISRGQSHLAPINYMRRQTLKNAERYIIPELKEYEDKVLTSKGKALALEKQLYEELFDLLLPHLEALQQSASALAELDVLVNLAERAYTLNYTCPTFIDKPGIRITEGRHPVVEQVLNEPFIANPLNLSPQRRMLIITGPNMGGKSTYMRQTALIALMAYIGSYVPAQKVEIGPIDRIFTRVGAADDLASGRSTFMVEMTETANILHNATEYSLVLMDEIGRGTSTYDGLSLAWACAENLANKIKALTLFATHYFELTQLPEKMEGVANVHLDALEHGDTIAFMHSVQDGAASKSYGLAVAALAGVPKEVIKRARQKLRELESISPNAAATQVDGTQMSLLSVPEETSPAVEALENLDPDSLTPRQALEWIYRLKSLV

In one assay the parent is B1. In words: SPR. Particulars: with WT MutS, MutS sliding clamps pre-formed on 100-bp end-blocked DNA in the presence of ATP, value read at the highest MutL concentration (last point, est. about 5,000 …), read off a plot.
For the variant chain 1 R55D R57D A138E H139A, the response was -1%.
Still for that read-out and setting: for chain 1 A138E H139A the value was 3%.
Same read-out and setting: for chain 1 R55D R57D the value was -7%.
In the case of chain 1 K52C, the response stood at 13%.
The same measure, in the same setting: for chain 1 A138E the value was 11%.

Staying with this assay, now noted: with WT His6-MutL, MutS sliding clamps pre-formed on 100-bp end-blocked DNA in the presence of ATP, value read at the highest MutL concentration (last point, est. about 5,000 …), read off a plot.
Regarding chain 2 P595A I597A M759D, the response is 8%.
